B1: yeast seipin Sei1 with C-terminal 3xFLAG-TEV-2xProteinA tag, purified from strain HAY60 (natural protein, S. cerevisiae, UniProt Q06058 1-285, looked up)
chain: MKINVSRPLQFLQWSSYIVVAFLIQLLIILPLSILIYHDFYLRLLPADSSNVVPLNTFNILNGVQFGTKFFQSIKSIPVGTDLPQTIDNGLSQLIPMRDNMEYKLDLNLQLYCQSKTDHLNLDNLLIDVYRGPGPLLGAPGGSNSKDEKIFHTSRPIVCLALTDSMSPQEIEQLGPSRLDVYDEEWLNTIRIEDKISLESSYETISVFLKTEIAQRNLIIHPESGIKFRMNFEQGLRNLMLRKRFLSYIIGISIFHCIICVLFFITGCTAFIFVRKGQEKSKKHS
notes: seipin Sei1 (Fld1), S. cerevisiae; tagged at the endogenous locus; The 2xProteinA part held the protein on IgG Sepharose and was cut off with TEV protease before SEC and cryo-EM; The deposited model holds residues 17-264 without 134-147; also called Fld1; source: S. cerevisiae strain HAY60, overproduced from the GAL1 promoter at the endogenous locus; purified (IgG Sepharose, TEV cleavage, …)
B2: seipin lumenal domain WT(47-235) with C-terminal 6xHis (domain or fragment, S. cerevisiae, UniProt Q06058 47-235, looked up)
chain: ADSSNVVPLNTFNILNGVQFGTKFFQSIKSIPVGTDLPQTIDNGLSQLIPMRDNMEYKLDLNLQLYCQSKTDHLNLDNLLIDVYRGPGPLLGAPGGSNSKDEKIFHTSRPIVCLALTDSMSPQEIEQLGPSRLDVYDEEWLNTIRIEDKISLESSYETISVFLKTEIAQRNLIIHPESGIKFRMNFEQG
notes: seipin Sei1, S. cerevisiae, lumenal domain lacking the TM segments, residues 47-235; also called WT lumenal domain; source: E. coli SHuffle T7 Express, purified (Ni-NTA), isolated in the absence of detergent; copies: 10

Legend:
[1] = target: the molecule itself; assay: cryo-EM structure; purified Sei1-Ldb16 complex reconstituted in amphipol PmalC8, about 3.5 mg/ml; negative stain and cryo-EM; C10 then C5 symmetry
[2] = target: the molecule itself; assay: negative-stain EM; WT lumenal domain oligomers from the SEC, 2D class averages

Protein | stoichiometry N [1] | stoichiometry N [2]
B1 | 10 | –
B2 | – | 10

— article PMC8930772, “Seipin forms a flexible cage at lipid droplet formation sites” (Nature Structural & Molecular Biology, 2022)
